As usually defined, the stoichiometry N is a count of units in the complex or per binding partner.

The assay addresses PtTamH (Pseudoalteromonas tunicata). Nature of the assay: SEC; size exclusion chromatography of purified recombinant PtTamH after IMAC; retention volume corresponds to >200 kDa. On the technique in general: SEC sorts molecules by how far they enter the pores of the column.

Take PtTamH (enzyme): the stoichiometry N stood at 2.

(Values after article PMC9594044.)
